Drawing on paper PMC9367475, this text covers luciferase reporter activity (pseudotype transduction of DC-THP-1 cells), with rfhSP-D 20 µg/ml against untreated, luciferase reporter activity (pseudotype transduction of DC-HEK cells), with rfhSP-D 20 µg/ml against untreated and increase of binding with rfhSP-D (20 µg/ml) against untreated for 2 substances.

The target of assay [1] is DC-SIGN on THP-1 cells induced with PMA and IL-4 (DC-THP-1) (human (endogenous in THP-1)) (UniProt Q9NNX6).
In assay [2] the target is human DC-SIGN expressed on HEK 293T cells (DC-HEK) (human) (UniProt Q9NNX6).
Assay [3] deals with DC-SIGN on THP-1 cells induced with PMA and IL-4 (DC-THP-1) (human (endogenous in THP-1)) (UniProt Q9NNX6). Briefly: cell binding assay (immunofluorescence read on a microplate reader); DC-HEK or DC-THP-1 cells in microtiter wells (1 x 10^5 cells/well); spike pseudotypes pre-incubated with or without rfhSP-D (20 µg/ml) added for 2 h at room temperature; fixed, anti-spike and Alexa Fluor 488 secondary antibody.

Assay [4] addresses human DC-SIGN expressed on HEK 293T cells (DC-HEK) (human) (UniProt Q9NNX6). The description is as above.

“SARS-CoV-2 spike protein on lentiviral pseudotypes (from UniProt P0DTC2 14-1273) (natural protein)” displayed a luciferase reporter activity (pseudotype transduction of DC-THP-1 cells), with rfhSP-D 20 µg/ml against untreated in assay [1] of 90%. Besides, in assay [2], the luciferase reporter activity (pseudotype transduction of DC-HEK cells), with rfhSP-D 20 µg/ml against untreated is 190%.
Regarding “SARS-CoV-2 spike protein on lentiviral pseudotypes (from UniProt P0DTC2 14-1273) (natural protein; other documents disagree on this pair)”, the increase of binding with rfhSP-D (20 µg/ml) against untreated in assay [3] was determined as 25%; in assay [4], 50%.
